Experimental findings from patent US9999664B2, “HIV-1 gp120 mini V3 loop and uses thereof” (The Scripps Research Institute, priority 2011, dated 2018) are described below.

In test [1] the target is HIV-1 JR-FL envelope (Env) on pseudovirus (HIV-1 JR-FL).
For test [2] the target is unchanged. The source holds these as a separate data set.
Test [3] has as its target HIV-1 92RW020 envelope N332A on pseudovirus (HIV-1 92RW020). The experiment in a line: cell-based or functional assay.
The target of test [4] is HIV-1 ADA envelope N301A on pseudovirus (HIV-1 ADA). As to the kind of experiment: cell-based or functional assay.
Test [5] has as its target HIV-1 ADA envelope N332A on pseudovirus (HIV-1 ADA). As to the kind of experiment: cell-based or functional assay.
The target of test [6] is HIV-1 BaL envelope N301A on pseudovirus (HIV-1 BaL). The experiment in a line: cell-based or functional assay.
In test [7] the target is HIV-1 BaL envelope N332A on pseudovirus (HIV-1 BaL). The experiment in a line: cell-based or functional assay.
Test [8] has as its target HIV-1 JRCSF envelope N301A on pseudovirus (HIV-1 JR-CSF) (UniProt P20871). As to the kind of experiment: cell-based or functional assay.
Test [9] concerns the target HIV-1 JRCSF envelope N332A on pseudovirus (HIV-1 JR-CSF) (UniProt P20871). As to the kind of experiment: cell-based or functional assay.
In test [10] the target is HIV-1 JRFL envelope N301A on pseudovirus (HIV-1 JR-FL). The experiment in a line: cell-based or functional assay.
Test [11] has as its target HIV-1 JRFL envelope N332A on pseudovirus (HIV-1 JR-FL). The experiment in a line: cell-based or functional assay.
The target in test [12] is HIV-1 SF162 envelope N301A on pseudovirus (HIV-1 SF162) (UniProt P19550). The experiment in a line: cell-based or functional assay.
Test [13] concerns the target HIV-1 SF162 envelope N332A on pseudovirus (HIV-1 SF162) (UniProt P19550). The experiment in a line: cell-based or functional assay.
Test [14] addresses engineered outer domain mini-V3 (eODmV3), glycosylated gp120 outer domain construct (HIV-1 (base strain HxB2; mini-V3 based on JR-FL)). The experiment in a line: ELISA of IgG PGT 128 (FIG. 13).
The next test deals with JR-FL core + mini-V3. The experiment in a line: ELISA on coated antigen, OD 405.
Test [15] concerns the target gp120 (ELISA antigen of FIG. 3, strain not stated) (HIV-1, strain not stated). The experiment in a line: ELISA on coated gp120, absorbance at 405 nm.
Test [16] deals with HIV-1YU2 Env on the surface of transfected 293T cells (Human immunodeficiency virus 1, strain YU2). As to the kind of experiment: flow cytometry on HIV-1YU2 Env-transfected 293T cells, MFI.
For test [17], the target named is HIV-1JR-FL Env trimers on the surface of transfected 293T cells (Human immunodeficiency virus 1, strain JR-FL). As to the kind of experiment: JR-FL cell surface binding, flow cytometry on transfected 293T cells.

On to PGT 128 IgG (antibody), for which the IC50 (read off the curve; HIV-1JR-FL pseudovirus) in test [1] is 0.01 µg/mL. Moreover, the IC50 (JR-FL neutralization) in [2] stood at 0.09 nM. Also, the fold change in IC50 of variant envelope compared to WT envelope was 1.6 fold in test [3]; above 200 fold in [4]; above 200 fold in test [5]; above 200 fold in test [6]; above 200 fold in test [7]; 10.7 fold in test [8]. The fold change in IC50 of variant envelope compared to WT envelope in [9] is 1.4 fold; in test [10] it was above 200 fold; in [11] it was above 200 fold; in test [12], above 200 fold; in [13], above 200 fold. Further, the apparent affinity in test [14] came to 46 nM. The EC50 (read off the curve) with JR-FL core + mini-V3 turned out to be 2 nM; in [15], 0.04 µg/mL; in [16], 8 nM. In [17], this substance gave a half-maximal effective concentration (EC50) of 2.8 nM.
